Source: patent publication US20220281990A1 (MERRIMACK PHARMACEUTICALS, published 2022)

Columns and labels:
[1] = biological target: T1, recombinant human TNFR2-hFc protein (human, UniProt P20333 23-257); experiment: flow cytometry; hTNFR2-Fc binding to scFv displayed on yeast; one site binding fit (FIG. 6A)
T1 construct: also called hTNFR2-Fc; human TNFR2-Fc; not shown: human Fc
T1 sequence: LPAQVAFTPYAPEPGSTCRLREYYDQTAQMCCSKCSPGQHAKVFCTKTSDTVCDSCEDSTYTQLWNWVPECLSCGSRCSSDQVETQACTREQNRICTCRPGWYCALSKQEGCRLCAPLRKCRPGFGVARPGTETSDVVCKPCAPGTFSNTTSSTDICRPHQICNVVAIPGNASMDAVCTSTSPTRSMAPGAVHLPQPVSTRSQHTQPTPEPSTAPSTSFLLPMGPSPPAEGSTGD

[2] = biological target: T1, recombinant human TNFR2-hFc protein; experiment: flow cytometry; hTNFR2-Fc binding to scFv displayed on yeast (FIG. 4)
[3] = biological target: T1, recombinant human TNFR2-hFc protein; experiment: flow cytometry; hTNFR2-Fc binding to scFv displayed on yeast; one site binding fit (FIG. 4)
[4] = biological target: T2, Human TNFR2 expressed on cells (CHO-hTNFR2 cells) (human, UniProt P20333 23-461); experiment: flow cytometry; soluble scFv inhibiting TNF (1 nM) binding to CHO-hTNFR2 cells (FIGS. 5A-5B)
T2 construct: also called CHO cells overexpressing human TNFR2; human TNFR2 reporter cells (HEK293)
T2 sequence: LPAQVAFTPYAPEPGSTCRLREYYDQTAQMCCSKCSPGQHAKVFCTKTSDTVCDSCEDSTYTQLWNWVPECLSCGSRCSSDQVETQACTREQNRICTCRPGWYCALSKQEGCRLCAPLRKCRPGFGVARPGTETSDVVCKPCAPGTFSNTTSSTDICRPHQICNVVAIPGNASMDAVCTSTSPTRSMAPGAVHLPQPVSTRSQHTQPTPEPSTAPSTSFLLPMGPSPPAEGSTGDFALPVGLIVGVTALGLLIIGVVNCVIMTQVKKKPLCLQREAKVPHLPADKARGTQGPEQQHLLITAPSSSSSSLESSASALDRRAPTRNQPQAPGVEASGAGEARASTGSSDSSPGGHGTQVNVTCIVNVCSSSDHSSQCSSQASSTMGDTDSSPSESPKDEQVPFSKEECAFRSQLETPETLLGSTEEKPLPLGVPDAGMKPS

[5] = biological target: T2, Human TNFR2 expressed on cells …; experiment: flow cytometry; IgG inhibiting TNF (1 nM) binding to CHO-hTNFR2 cells (FIG. 13A); FIG. 13A
[6] = biological target: T2, Human TNFR2 expressed on cells …; experiment: flow cytometry; IgG binding to CHO-hTNFR2 cells; four parameter fit (FIG. 10)
[7] = biological target: T2, Human TNFR2 expressed on cells …; experiment: flow cytometry; IgG inhibiting TNF (1 nM) binding to CHO-hTNFR2 cells (FIG. 12)
[8] = biological target: T3, recombinant human TNFR2-His (human, UniProt P20333 23-257); experiment: biolayer interferometry (BLI); IgG1 and TNFR2-His protein (FIG. 11)
T3 construct: also called hTNFR2-His; TNFR2-His protein; not shown: His tag
T3 sequence: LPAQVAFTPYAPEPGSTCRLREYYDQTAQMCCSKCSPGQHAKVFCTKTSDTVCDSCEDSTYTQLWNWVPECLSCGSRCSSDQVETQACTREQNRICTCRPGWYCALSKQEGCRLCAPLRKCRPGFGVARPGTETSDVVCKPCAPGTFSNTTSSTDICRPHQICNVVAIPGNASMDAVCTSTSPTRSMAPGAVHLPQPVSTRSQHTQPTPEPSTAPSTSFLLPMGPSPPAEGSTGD

[9] = biological target: T2, Human TNFR2 expressed on cells …; experiment: flow cytometry; IgG inhibiting TNF (1 nM) binding to CHO-hTNFR2 cells (FIG. 13B); FIG. 13B
[10] = biological target: T1, recombinant human TNFR2-hFc protein; experiment: flow cytometry; hTNFR2-Fc binding to scFv displayed on yeast; one site binding fit (FIG. 6B); FIG. 6B
[11] = biological target: T3, recombinant human TNFR2-His; experiment: flow cytometry; hTNFR2-His binding to scFv displayed on yeast (FIG. 8)
[12] = biological target: T2, Human TNFR2 expressed on cells …; experiment: flow cytometry; soluble scFv inhibiting TNF (1 nM) binding to CHO-hTNFR2 cells (FIG. 7)
[13] = biological target: T1, recombinant human TNFR2-hFc protein; experiment: flow cytometry; TNFR2-Fc binding to scFv displayed on yeast (FIGS. 6A-6C)
[14] = biological target: T1, recombinant human TNFR2-hFc protein; experiment: flow cytometry; hTNFR2-Fc binding to scFv displayed on yeast; one site binding fit (FIG. 6B)
[15] = biological target: T1, recombinant human TNFR2-hFc protein; experiment: flow cytometry; hTNFR2-Fc binding to scFv displayed on yeast; one site binding fit (FIG. 6C)

B1: UC1.1 (S4-2 1B5-1D9) scFv (scFv)
scFv: QVQLLESGGGLVQPGGSLRLSCAASGFSFTSYAMTWVRQAPGKGLEWVSGISGGGAATFYADSVKGRFTISRDNSKNTLYLQMNSLRAEDTAVYYCARQSQYVGGFDYWGQGTLVTVSSASSGGSTSGSGKPGSGEGSSGSARQSVLTQPPSVSGAPGQRVTISCTGSSSNIGAGYGVHWYQQLPGTAPKLLIHGNTNRPSGVPDRFSGFKSGTSASLAITGLQAEDEADYYCQSYDSSLSGWVFGGGTKLTVLG
B1 was tested, and the Kd [1] was 2.87 nM, the “fold higher affinity (vs parental scFv)” value [2] was roughly 5 fold and the Kd [3] was 2.59 nM. It also gave an IC50 [4] of 10.7 nM.

B2: UC2.3-IgG1 (antibody, V domains shown)
VH: QVQLLESGGGLVQPGGSLRLSCAASGFTFSTYAMSWIRQAPGKGLEWVSIISDGGDATVYADSVKGRFTISRDNSKNTLYLQMNSLRAEDTAVYYCARDGTSAAAFDSWGQGTLVTVSS
VL: DIQMTQSPSSLSASVGDRVTITCQASQDITNFLNWYQQKPGKAPKLLIYDASTLQTGVPSRFSGSGSGTDFTFTISSLQPEDIATYYCQQSDSYPITFGQGTKVEIKR
notes: Full-length human IgG1; also called anti-human TNFR2 IgG UC2.3
An IC50 [5] of 48 nM, an EC50 [6] of 3.4 nM and an IC50 [7] of 12.4 nM were found for B2 in this work.

B3: UC2.3.8-IgG1 (antibody, V domains shown)
VH: QVQLLESGGGLVQPGGSLRLSCAASGFTFSTYAMSWIRQAPGKGLEWVSIISDGGDATVYADSVKGRFTISRDNNRNTLYLQMNSLRAEDTAVYYCARDGTSAAAFDSWGQGTLVTVSS
VL: DIQMTQSPSSLSASVGDRVTITCQASQDITNFLNWYQQKPGKAPKLLIYDASRRRAGVPSRFSGSGSGTDFTFTISSLQPEDIATYYCQQSDSYPITFGQGTKVEIKR
notes: Full-length human IgG1; UC2.3.3 heavy chain combined with UC2.3.7 light chain; also called anti-human TNFR2 IgG UC2.3.8
A Kd [8] of 0.344 nM and an IC50 [9] of 0.088 nM were found for B3 in this work.

B4: UC2.3.7-IgG1 (antibody, V domains shown)
VH: QVQLLESGGGLVQPGGSLRLSCAASGFTFSTYAMSWIRQAPGKGLEWVSIISDGGDATVYADSVKGRFTISRDNSKNTLYLQMNSLRAEDTAVYYCARDGTSAAAFDSWGQGTLVTVSS
VL: DIQMTQSPSSLSASVGDRVTITCQASQDITNFLNWYQQKPGKAPKLLIYDASRRRAGVPSRFSGSGSGTDFTFTISSLQPEDIATYYCQQSDSYPITFGQGTKVEIKR
notes: Full-length human IgG1; also called anti-human TNFR2 IgG UC2.3.7
A Kd [8] of 17.1 nM and an IC50 [5] of 8.69 nM were found for B4 in this work.

B5: UC2.3.3-IgG1 (antibody, V domains shown)
VH: QVQLLESGGGLVQPGGSLRLSCAASGFTFSTYAMSWIRQAPGKGLEWVSIISDGGDATVYADSVKGRFTISRDNNRNTLYLQMNSLRAEDTAVYYCARDGTSAAAFDSWGQGTLVTVSS
VL: DIQMTQSPSSLSASVGDRVTITCQASQDITNFLNWYQQKPGKAPKLLIYDASTLQTGVPSRFSGSGSGTDFTFTISSLQPEDIATYYCQQSDSYPITFGQGTKVEIKR
notes: Full-length human IgG1; also called anti-human TNFR2 IgG UC2.3.3
A Kd [8] of 0.573 nM, an IC50 [9] of 0.68 nM and an IC50 [5] of 0.89 nM were found for B5 in this work.

B6: UC2-IgG1 (antibody, V domains shown)
VH: QVQLLESGGGLVQPGGSLRLSCAASGFTFSTYAMSWVRQAPGKGLEWVSIISDGGDATFYADSVKGRFTISRDNSKNTLYLQMNSLRAEDTAVYYCARDGTSAAAFDSWGQGTLVTVSS
VL: DIQMTQSPSSLSASVGDRVTITCQASQDITNFLNWYQQKPGKAPKLLIYDASTLQTGVPSRFSGSGSGTDFTFTISSLQPEDIATYYCQQSDSYPITFGQGTKVEIKR
notes: Full-length human IgG1; also called anti-human TNFR2 IgG UC2
An EC50 [6] of 97.9 nM was found for B6 in this work.

B7: UC2.3 (S4-2 1D10-1G9) scFv (scFv)
scFv: QVQLLESGGGLVQPGGSLRLSCAASGFTFSTYAMSWIRQAPGKGLEWVSIISDGGDATVYADSVKGRFTISRDNSKNTLYLQMNSLRAEDTAVYYCARDGTSAAAFDSWGQGTLVTVSSASSGGSTSGSGKPGSGEGSSGSARDIQMTQSPSSLSASVGDRVTITCQASQDITNFLNWYQQKPGKAPKLLIYDASTLQTGVPSRFSGSGSGTDFTFTISSLQPEDIATYYCQQSDSYPITFGQGTKVEIKR
A Kd [10] of 8.16 nM, an EC50 [11] of 33.9 nM and an IC50 [12] of 4.85 nM were found for B7 in this work. The “fold higher affinity (vs parental scFv)” value [2] was roughly 5 fold, the Kd [3] was 8.88 nM and the IC50 [4] was 6.59 nM.

B8: UC2.3.3 (S4-2 1D10-1G9-1F10) scFv (scFv)
scFv: QVQLLESGGGLVQPGGSLRLSCAASGFTFSTYAMSWIRQAPGKGLEWVSIISDGGDATVYADSVKGRFTISRDNNRNTLYLQMNSLRAEDTAVYYCARDGTSAAAFDSWGQGTLVTVSSASSGGSTSGSGKPGSGEGSSGSARDIQMTQSPSSLSASVGDRVTITCQASQDITNFLNWYQQKPGKAPKLLIYDASTLQTGVPSRFSGSGSGTDFTFTISSLQPEDIATYYCQQSDSYPITFGQGTKVEIKR
notes: also called UC2.3.3 (monomer)
For B8, the IC50 [12] was 3.94 nM, the “fold higher affinity (vs parental scFv)” value [13] was 10 fold and the Kd [14] was 1.35 nM.

B9: UC2.3.3 scFv (dimer) (scFv)
scFv: QVQLLESGGGLVQPGGSLRLSCAASGFTFSTYAMSWIRQAPGKGLEWVSIISDGGDATVYADSVKGRFTISRDNNRNTLYLQMNSLRAEDTAVYYCARDGTSAAAFDSWGQGTLVTVSSASSGGSTSGSGKPGSGEGSSGSARDIQMTQSPSSLSASVGDRVTITCQASQDITNFLNWYQQKPGKAPKLLIYDASTLQTGVPSRFSGSGSGTDFTFTISSLQPEDIATYYCQQSDSYPITFGQGTKVEIKR
notes: also called UC2.3.3 (dimer)
An IC50 [12] of 1.72 nM was found for B9 in this work.

B10: UC2.3.15 (S4-2 1D10-1G9-1H12) scFv (scFv)
scFv: QVQLLESGGGLVQPGGSLRLSCAVSGFTFSTYAMSWIRQAPGKGLEWVSIISDGGDATVYADSVKGRFTISRDNSKNTLYLQMNSLRAEDTAVYYWARDGTSAAAFDSWGQGTLVTVSSANSGGSTSGSGKPGSGEGSSGSARDIQMTQSPSSLSASVGDRVTITCQASQDITNFLNWYQQKPGKAPKLLIYDASTLQTGVPSRFSGSGSGTDFTFTISSLQPEDIATYYCQQSDSYPITFGQGTKVEIKR
With B10 the Kd [15] was 0.78 nM and the “fold higher affinity (vs parental scFv)” value [13] was 10 fold.
